The results in this text go back to patent publication US20190314479A1.

The assay concerns the target HLA-A2 molecules. Kind of assay: T2A2 peptide binding assay to HLA-A2.

QQYNKPLCDL (modifications not checked) [HPV-16 E6 native peptide E6-3 (E6 90-99)] gave a T2A2 Binding of 1020.

Molecule YMLDLQPET (modifications not checked) [HPV-16 E7 native peptide E7-1 (E7 11-19)] yielded a T2A2 Binding of 1100.
